Test results as given in paper PMC9079088, “FBXO2 targets glycosylated SUN2 for ubiquitination and degradation to promote ovarian cancer development” (Cell Death & Disease, 2022).

Target: T1, HA-SUN2 (human (cDNA from 293T or A2780 cells), UniProt Q9UH99 1-717, N-glycosylation (sites not given))
T1 construct: SAD1/UNC84 domain protein-2 (SUN2), cloned from cDNAs of 293T or A2780 cells; also called SAD1/UNC84 domain protein-2; source: HEK293T, transiently transfected; immunoprecipitated with anti-HA resin and eluted with HA peptide, or in lysate
T1 sequence (looked up): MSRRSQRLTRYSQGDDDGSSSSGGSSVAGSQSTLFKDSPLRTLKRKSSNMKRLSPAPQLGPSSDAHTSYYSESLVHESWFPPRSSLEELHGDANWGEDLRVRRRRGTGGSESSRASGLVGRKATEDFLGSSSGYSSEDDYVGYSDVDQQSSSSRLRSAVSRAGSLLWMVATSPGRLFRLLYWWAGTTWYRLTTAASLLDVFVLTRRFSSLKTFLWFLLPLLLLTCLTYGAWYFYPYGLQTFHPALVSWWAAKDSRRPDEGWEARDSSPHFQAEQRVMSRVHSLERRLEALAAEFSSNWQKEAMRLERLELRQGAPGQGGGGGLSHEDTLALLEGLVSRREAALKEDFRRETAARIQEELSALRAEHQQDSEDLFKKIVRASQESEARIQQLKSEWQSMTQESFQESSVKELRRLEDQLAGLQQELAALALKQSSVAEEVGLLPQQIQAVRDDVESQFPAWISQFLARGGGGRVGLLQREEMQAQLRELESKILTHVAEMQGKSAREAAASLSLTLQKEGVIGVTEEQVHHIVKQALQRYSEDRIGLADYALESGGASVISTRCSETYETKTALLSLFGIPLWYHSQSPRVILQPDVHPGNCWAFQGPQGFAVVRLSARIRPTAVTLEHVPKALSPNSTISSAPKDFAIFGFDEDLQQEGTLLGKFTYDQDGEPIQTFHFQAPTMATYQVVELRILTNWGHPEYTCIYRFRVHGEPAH
Experiment: pull-down; GST or GST-FBXO2 incubated with HA-SUN2 (anti-HA resin, eluted with HA peptide) in PB buffer (20 mM HEPES pH 7.5, 130 mM KCl, 5 mM MgCl2, 1 mM DTT, 0.5 mM EDTA, 0.05% NP40) at 30 °C for 2 h, then glutathione beads; the legend speaks of lysed cells
Conditions: both partners purified

binding result: binds
B1: GST-FBXO2 WT (natural protein, human, UniProt Q9UK22 1-296, looked up)
chain: MDGDGDPESVGQPEEASPEEQPEEASAEEERPEDQQEEEAAAAAAYLDELPEPLLLRVLAALPAAELVQACRLVCLRWKELVDGAPLWLLKCQQEGLVPEGGVEEERDHWQQFYFLSKRRRNLLRNPCGEEDLEGWCDVEHGGDGWRVEELPGDSGVEFTHDESVKKYFASSFEWCRKAQVIDLQAEGYWEELLDTTQPAIVVKDWYSGRSDAGCLYELTVKLLSEHENVLAEFSSGQVAVPQDSDGGGWMEISHTFTDYGPGVRFVRFEHGGQDSVYWKGWFGARVTNSSVWVEP
notes: F-box protein FBXO2, human; also called GST tagged FBXO2
